Reference: patent US10143730B2, “Peptides and combination of peptides for use in immunotherapy against various cancers” (immatics biotechnologies GmbH, priority 2015, dated 2018)

Molecular target: T1, HLA-A*02 (Homo sapiens, UniProt P04439, D140Y/D185E/D98H/E176V/E277Q/G131W/G231S/I119V/I121R/I166T/I218V/L300P/N151K/N90K/P208A/P217A/Q86G/Q94H/R138H/R169H)
T1 construct: made in house
Assay: MHC binding assay, UV-ligand exchange with beta2m ELISA (peptide exchange yield)
Conditions: binding to HLA-A*02
Description: Candidate peptides for T cell based therapies according to the present invention were further tested for their MHC binding capacity (affinity). The individual peptide-MHC complexes were produced by UV-ligand exchange, where a UV-sensitive peptide is cleaved upon UV-irradiation, and exchanged with the peptide of interest as analyzed. Only peptide candidates that can effectively bind and stabilize the peptide-receptive MHC molecules prevent dissociation of the MHC complexes. To determine the yield of the exchange reaction, an ELISA was performed based on the detection of the light chain (β2m) of stabilized MHC complexes. The assay was performed as generally described in Rodenko et al. (Rodenko et al., 2006).
96 well MAXISorp plates (NUNC) were coated over night with 2 ug/ml streptavidin in PBS at room temperature, washed 4× and blocked for 1h at 37° C. in 2% BSA containing blocking buffer. Refolded HLA-A*02:01/MLA-001 monomers served as standards, covering the range of 15-500 ng/ml. Peptide-MHC monomers of the UV-exchange reaction were diluted 100 fold in blocking buffer. Samples were incubated for 1h at 37° C., washed four times, incubated with 2 ug/ml HRP conjugated anti-32m for 1h at 37° C., washed again and detected with TMB solution that is stopped with […]. Absorption was measured at 450 nm. Candidate peptides that show a high exchange yield (preferably higher than 50%, most preferred higher than 75%) are generally preferred for a generation and production of antibodies or fragments thereof, and/or T cell receptors or fragments thereof, as they show sufficient avidity to the MHC molecules and prevent dissociation of the MHC complexes.

Peptide exchange (MHC class I binding score, peptide exchange yield)	Substance
++++ (> = 75% = ++++)	245 (SLLDLPLSL; listed as Homo sapiens) [compound 245]
+++ (50%-75% = +++)	28 (SLPNGKPVSV; listed as Homo sapiens) [compound 28]
+++ (50%-75% = +++)	132 (ILGEVLAQL; listed as Homo sapiens) [compound 132]
++ (20%-49% = ++)	62 (ALNPELVQA; listed as Homo sapiens) [compound 62]
++ (20%-49% = ++)	128 (TQSPATLSV; listed as Homo sapiens) [compound 128]
+++ (50%-75% = +++)	262 (FMVDKAIYL; listed as Homo sapiens) [compound 262]
+++ (50%-75% = +++)	67 (TLLQRLTEV; listed as Homo sapiens) [compound 67]
++ (20%-49% = ++)	88 (AQADHLPQL; listed as Homo sapiens) [compound 88]
++ (20%-49% = ++)	122 (GVVDPVHGV; listed as Homo sapiens) [compound 122]
+++ (50%-75% = +++)	49 (ALNIATHVL; listed as Homo sapiens) [compound 49]
+++ (50%-75% = +++)	145 (YLWATIQRI; listed as Homo sapiens) [compound 145]
++ (20%-49% = ++)	108 (ILLKNLVTI; listed as Homo sapiens) [compound 108]
++++ (> = 75% = ++++)	257 (GLYTDPCGV; listed as Homo sapiens) [compound 257]
++ (20%-49% = ++)	83 (GQASYFYVA; listed as Homo sapiens) [compound 83]
+++ (50%-75% = +++)	148 (MLAGIAITV; listed as Homo sapiens) [compound 148]
+++ (50%-75% = +++)	74 (TLFGYSVVL; listed as Homo sapiens) [compound 74]
+++ (50%-75% = +++)	156 (ILGDLSHLL; listed as Homo sapiens) [compound 156]
+++ (50%-75% = +++)	121 (FTIFRTISV; listed as Homo sapiens) [compound 121]
++++ (> = 75% = ++++)	147 (YLMDDTVEI; listed as Homo sapiens) [compound 147]
++ (20%-49% = ++)	86 (SVDSHFQEV; listed as Homo sapiens) [compound 86]
+++ (50%-75% = +++)	255 (SLLHFTENL; listed as Homo sapiens) [compound 255]

Peptide exchange (MHC class I binding score, peptide exchange yield)	Substance
++ (20%-49% = ++)	238 (GLYERPTAA; listed as Homo sapiens) [compound 238]
++++ (> = 75% = ++++)	51 (LLFSRLCGA; listed as Homo sapiens) [compound 51]
++ (20%-49% = ++)	241 (KTIQQLETV; listed as Homo sapiens) [compound 241]
++++ (> = 75% = ++++)	34 (FLLATEVVTV; listed as Homo sapiens) [compound 34]
+++ (50%-75% = +++)	47 (ALLERGELFV; listed as Homo sapiens) [compound 47]
+++ (50%-75% = +++)	117 (KMPDVELFV; listed as Homo sapiens) [compound 117]
+ (<20% = +)	82 (FIFDEAEKL; listed as Homo sapiens) [compound 82]
+++ (50%-75% = +++)	40 (VLIDPQWVLTA; listed as Homo sapiens) [compound 40]
++ (20%-49% = ++)	48 (QVIEDSTGV; listed as Homo sapiens) [compound 48]
+++ (50%-75% = +++)	9 (FLVDGSYSI; listed as Homo sapiens) [compound 9]
+++ (50%-75% = +++)	37 (ILAPFSVDL; listed as Homo sapiens) [compound 37]
+++ (50%-75% = +++)	21 (AIQDEIRSV; listed as Homo sapiens) [compound 21]
+++ (50%-75% = +++)	33 (YIKTELISV; listed as Homo sapiens) [compound 33]
+++ (50%-75% = +++)	107 (LLVPTSGIYFV; listed as Homo sapiens) [compound 107]
+++ (50%-75% = +++)	24 (TLDEKVAEL; listed as Homo sapiens) [compound 24]
+++ (50%-75% = +++)	70 (LLLGDSALYL; listed as Homo sapiens) [compound 70]
+++ (50%-75% = +++)	265 (NTCPYVHNI; listed as Homo sapiens) [compound 265]
+++ (50%-75% = +++)	101 (ALADFMLSL; listed as Homo sapiens) [compound 101]
++ (20%-49% = ++)	99 (YLLQSVNQLLL; listed as Homo sapiens) [compound 99]
+++ (50%-75% = +++)	261 (QLQDRVYAL; listed as Homo sapiens) [compound 261]
+++ (50%-75% = +++)	260 (ILLEKILSL; listed as Homo sapiens) [compound 260]

Peptide exchange (MHC class I binding score, peptide exchange yield)	Substance
++ (20%-49% = ++)	22 (FVDPNTQEKV; listed as Homo sapiens) [compound 22]
+++ (50%-75% = +++)	15 (YLDLSHNQL; listed as Homo sapiens) [compound 15]
+++ (50%-75% = +++)	85 (VLNDILVRA; listed as Homo sapiens) [compound 85]
++ (20%-49% = ++)	73 (YTLREVDTV; listed as Homo sapiens) [compound 73]
+++ (50%-75% = +++)	56 (FLHDEKEGIYI; listed as Homo sapiens) [compound 56]
++ (20%-49% = ++)	113 (FLERGLESA; listed as Homo sapiens) [compound 113]
+++ (50%-75% = +++)	69 (FLAVGLVDV; listed as Homo sapiens) [compound 69]
++++ (> = 75% = ++++)	126 (QMFQYFITV; listed as Homo sapiens) [compound 126]
+++ (50%-75% = +++)	259 (ILLPRIIEA; listed as Homo sapiens) [compound 259]
+++ (50%-75% = +++)	38 (FLGPRIIGL; listed as Homo sapiens) [compound 38]
+++ (50%-75% = +++)	266 (YAIGLVMRL; listed as Homo sapiens) [compound 266]
+++ (50%-75% = +++)	250 (SLAPATPEV; listed as Homo sapiens) [compound 250]
++ (20%-49% = ++)	46 (SQFPLPLAV; listed as Homo sapiens) [compound 46]
+++ (50%-75% = +++)	55 (SLATKIVEA; listed as Homo sapiens) [compound 55]
+++ (50%-75% = +++)	25 (TMDSVLVTV; listed as Homo sapiens) [compound 25]
+++ (50%-75% = +++)	154 (RLLGTEFQV; listed as Homo sapiens) [compound 154]
+++ (50%-75% = +++)	127 (KLDGNELDL; listed as Homo sapiens) [compound 127]
+++ (50%-75% = +++)	135 (HLSTIIHEA; listed as Homo sapiens) [compound 135]
++ (20%-49% = ++)	64 (SLFPDSLIV; listed as Homo sapiens) [compound 64]
